The values that follow come from US5935824A, “Protein expression system” (Technologene, Inc., priority 1996, dated 1999).

Usually kcat stands for the maximal rate divided by the concentration of active sites.

Substrate in this data set: C[C@H](NC(=O)[C@H](Cc1ccccc1)NC(=O)OCc1ccccc1)C(=O)O
Put plainly: Flow digestion of N-CBZ-peptides through CPD-Y Acti Disk, ninhydrin assays. It is filed as biochemical, yeast. Conditions: other: free enzyme; calculated from Sigma specific activity. As for the experimental part: The reported Km values for CPD-Y have been generated using extremely low enzyme concentration compared to substrate concentration. The value for Km represents the concentration of substrate that will produce 1/2 the maximum velocity for the initial reaction rates. During the testing of the immobilized CPD-Y enzyme disks with various dipeptide substrates, the maximum flow rate that can be achieved without any substantial increase in the pressure of the solution, is 4 ml/min. At this flow rate, the substrate remains within the immobilized enzyme matrix for 1.74 seconds. This value is determined by dividing the internal porous volume of the matrix to which the enzyme is immobilized (115 μL/4000 μL, min^-1). […]
Standard ninhydrin assay: Hydrolysis of the non-proline containing N-CBZ-dipeptides was determined by assaying the amount of free amino acid released by a colorometric ninhydrin reaction at a pH greater than 5.2. […] Samples were then cooled to room temperature and 600 μl of 60% ethanol was added as the diluent and the absorbance was read at 570 nm on a Beckman DU 7000 spectrophotometer.
Proline ninhydrin assay: Hydrolysis of proline-containing N-CBZ-dipeptides were measured with a modified version of the assay described by Magne and Larher [Anal. Biochem., 200:115 (1982)]. […]

B1: carboxypeptidase Y (CPD-Y) immobilized to Acti-Disk (Saccharomyces cerevisiae S288C) (protein)
chain: KIKDPKILGIDPNVTQYTGYLDVEDEDKHFFFWTFESRNDPAKDPVILWLNGGPGCSSLTGLFFELGPSSIGPDLKPIGNPYSWNSNATVIFLDQPVNVGFSYSGSSGVSNTVAAGKDVYNFLELFFDQFPEYVNKGQDFHIAGESYAGHYIPVFASEILSHKDRNFNLTSVLIGNGLTDPLTQYNYYEPMACGEGGEPSVLPSEECSAMEDSLERCLGLIESCYDSQSVWSCVPATIYCNNAQLAPYQRTGRNVYDIRKDCEGGNLCYPTLQDIDDYLNQDYVKEAVGAEVDHYESCNFDINRNFLFAGDWMKPYHTAVTDLLNQDLPILVYAGDKDFICNWLGNKAWTDVLPWKYDEEFASQKVRNWTASITDEVAGEVKSYKHFTYLRVFNGGHMVPFDVPENALSMVNEWIHGGFSL
notes: purchased Sigma
Regarding B1, the kcat was 103.3 s⁻¹.
